Consider six substances from paper PMC9136124.

For test [1], the target named is FakA linker region, central domain (FakA_L) (Staphylococcus aureus). The test can be described thus: AUC; sedimentation velocity of single constructs, c(s) model in SEDFIT, 20 mM Tris, pH 7.5, 200 mM NaCl, 5 mM DTT, 20 °C, 50,000 rpm, Rayleigh interference optics.
Test [2] has as its target FakA_LC (FakA_L and FakA_C domains connected) (Staphylococcus aureus). The test can be described thus: SEC-SAXS; Superdex 200 10/300, 20 mM Tris, pH 7.5, 200 mM NaCl, 1% glycerol; 300 μl FakA (4 mg/ml), FakA_NL (6.2 mg/ml) or FakA_LC (6 mg/ml) loaded. Background: In gel filtration, larger molecules generally elute earlier.
The target is the same in test [3]. The test can be described thus: SEC; analytical size exclusion chromatography on a S-75 13/300 column, 20 mM Tris, pH 7.5, 200 mM NaCl; oligomerization state estimated from a standard curve of protein standards.
Test [4] concerns the target FakA, kinase component of fatty acid kinase (Staphylococcus aureus) (Staphylococcus aureus). The test can be described thus: SEC-SAXS; Superdex 200 10/300, 20 mM Tris, pH 7.5, 200 mM NaCl, 1% glycerol; 300 μl FakA (4 mg/ml), FakA_NL (6.2 mg/ml) or FakA_LC (6 mg/ml) loaded.
For test [5], the target named is FakA C terminus, FakB substrate-binding domain (FakA_C) (Staphylococcus aureus). The test can be described thus: AUC; FakB1 mixed with each isolated FakA domain; c(s) model by the text, 'sedimentation equilibrium' by the legend of Figure 4; 20 mM Tris, pH 7.5, 200 mM NaCl, 5 mM DTT, 20 °C; apparent KD from equilibrium concentrations of duplicate experiments, single site equilibrium model.

For test [6], the target named is FakA_αβ bundle with helix (Staphylococcus aureus). The test can be described thus: AUC; sedimentation velocity of single constructs, c(s) model in SEDFIT, 20 mM Tris, pH 7.5, 200 mM NaCl, 5 mM DTT, 20 °C, 50,000 rpm, Rayleigh interference optics.
Test [7] concerns the target FakA_NL (FakA_N and FakA_L domains connected) (Staphylococcus aureus). The test can be described thus: SEC-SAXS; Superdex 200 10/300, 20 mM Tris, pH 7.5, 200 mM NaCl, 1% glycerol; 300 μl FakA (4 mg/ml), FakA_NL (6.2 mg/ml) or FakA_LC (6 mg/ml) loaded.
The target is the same in test [8]. The test can be described thus: SEC; analytical size exclusion chromatography on a S-75 13/300 column, 20 mM Tris, pH 7.5, 200 mM NaCl; oligomerization state estimated from a standard curve of protein standards.

Turning to “FakA linker region, central domain (FakA_L) (domain or fragment)”, the stoichiometry N in test [1] worked out at 2.

For the substance “FakA_LC (FakA_L and FakA_C domains connected) (domain or fragment)”, the stoichiometry N in test [2] and in test [3] was 2 in each case.

The substance “FakA, kinase component of fatty acid kinase (Staphylococcus aureus) (enzyme)” came in with a stoichiometry N in test [4] of 2.

In the case of “FakB1, fatty acid binding protein component of fatty acid kinase (Staphylococcus aureus) (from UniProt X5EH37 1-288) (natural protein)”, in test [5], the Kd was determined as 16 µM and the stoichiometry N came out at 1.

As to “FakA_αβ bundle with helix (domain or fragment)”, the stoichiometry N in test [6] is 2.

On to “FakA_NL (FakA_N and FakA_L domains connected) (domain or fragment)”, for which the stoichiometry N in test [7] and in test [8] was 2 throughout.

As usually defined, the stoichiometry N is a count of units in the complex or per binding partner.
